Results published in paper PMC8808176 (The Journal of Biological Chemistry, 2021).

Molecular target: the molecule itself
Test: cryo-EM structure

B1: full-length mouse TRPML2 (mmTRPML2) with N-terminal maltose-binding protein (natural protein, UniProt Q8K595-1 1-566, looked up)
chain: MPGDEETLDLPAWNRVPDLTWGPHHRSAMASLDSEVREECLREDLKFYFMSPCEKYRARRQIPWKLGLQILKIVMVTTQLVRFGLSNQLVVAFKEDNTVAFKHLFLKGFSGVDEDDYSCSIYTQENTYESIFFAIKQYRHLKNISLATLGYGESEDNRTGLKVCKQHYKTGAMFSSNETLNIDSDIETDCIHLDLQVLTTEPEDWAQTSFFRLDFYRLVQVDISFALKGIDLQAVHSREIPDCYLFQNTITFDNTAHSGKIKIYLNSEANIEECKNMNISGSTQRSTHYLLVFDVFVIMICLASLILCTRSIVLALRLRKRFLNFFLEKYKQRVCGADQWEFVNGWYVLVTISDLMTIIGSILKMEIKAKKLTNYDVCSILLGTSTLFVWVGVIRYLGYFQTYNVLILTMQASLPKVLRFCACAGMIYLGYTFCGWIVLGPYHEKFENLNIVAECLFSLVNGDDMFATFAQIQQKSILVWLFSRLYLYSFISLFIYMVLSLFIALITDSYHTIKKYQQHGFPETDLQKFLKESGSKDGYQKQPSALLSCLCCLRRRRSNDHLILID
stoichiometry N: 4
